Assay results: patent publication US20050090447A1, “Peptides that promote complement activation” (Baxter International Inc., priority 2003, published 2005)
Bridge positions count the residues as written; N and C are the ends. Ends that are not written are not given here.

Key:
[1] = system: E. coli strain 07:K1:NM (ATCC 23503); experiment: Bactericidal assay, complement-mediated killing in pooled human plasma, colony count; assay type: cell-based; settings: 100 uM peptide, one hour 37° C.; plasma alone 71%
Procedure: FIG. 4 is a bar graph depicting bacteriocidal activity of peptides against E. coli O7:K1:NM. Controls were run with plasma alone, complement inactivated (heat inactivated) plasma, and PBS/0.5% BSA.
The ability of Peptides 1- 3 to enhance complement-mediated killing of bacteria was examined. A virulent strain of E. coli that was chosen for the assays. E. coli strain 07:K1:NM (ATCC 23503), a strain less susceptible to complement mediated killing than most strains of E. coli, were grown in LB media to an optical density (OD) at 600 nm between 0.3 to 0.4 at 37° C. The cells were washed and resuspended in PBS containing 0.5% BSA and the concentration of cells determined from the OD at 600 nm. The cells were diluted in PBS/0.5% BSA to a concentration of 2×10^5 cfu/mL and 100 ul of cells were added to 100 ul of pooled human plasma containing 100 uM of peptide. The sample was incubated for one hour at 37° C. 10 ul aliquots were removed before and after the incubation and bacterial survival was examined by the colony count method (counting cells on LB agar before and after incubation). Heat inactivated plasma (56° C., 30 min.), plasma with no peptide, and PBS/0.5% BSA were also incubated with the cells as controls.

[2] = target: T1, C5 (Homo sapiens, UniProt P01031); experiment: Phage clone binding to biotinylated C5 (neutravidin capture, anti-M13 antibody detection); settings: phage clones, FIG. 1
T1 construct: purchased Advanced Research Technologies
T1 sequence (P01031 19-1676): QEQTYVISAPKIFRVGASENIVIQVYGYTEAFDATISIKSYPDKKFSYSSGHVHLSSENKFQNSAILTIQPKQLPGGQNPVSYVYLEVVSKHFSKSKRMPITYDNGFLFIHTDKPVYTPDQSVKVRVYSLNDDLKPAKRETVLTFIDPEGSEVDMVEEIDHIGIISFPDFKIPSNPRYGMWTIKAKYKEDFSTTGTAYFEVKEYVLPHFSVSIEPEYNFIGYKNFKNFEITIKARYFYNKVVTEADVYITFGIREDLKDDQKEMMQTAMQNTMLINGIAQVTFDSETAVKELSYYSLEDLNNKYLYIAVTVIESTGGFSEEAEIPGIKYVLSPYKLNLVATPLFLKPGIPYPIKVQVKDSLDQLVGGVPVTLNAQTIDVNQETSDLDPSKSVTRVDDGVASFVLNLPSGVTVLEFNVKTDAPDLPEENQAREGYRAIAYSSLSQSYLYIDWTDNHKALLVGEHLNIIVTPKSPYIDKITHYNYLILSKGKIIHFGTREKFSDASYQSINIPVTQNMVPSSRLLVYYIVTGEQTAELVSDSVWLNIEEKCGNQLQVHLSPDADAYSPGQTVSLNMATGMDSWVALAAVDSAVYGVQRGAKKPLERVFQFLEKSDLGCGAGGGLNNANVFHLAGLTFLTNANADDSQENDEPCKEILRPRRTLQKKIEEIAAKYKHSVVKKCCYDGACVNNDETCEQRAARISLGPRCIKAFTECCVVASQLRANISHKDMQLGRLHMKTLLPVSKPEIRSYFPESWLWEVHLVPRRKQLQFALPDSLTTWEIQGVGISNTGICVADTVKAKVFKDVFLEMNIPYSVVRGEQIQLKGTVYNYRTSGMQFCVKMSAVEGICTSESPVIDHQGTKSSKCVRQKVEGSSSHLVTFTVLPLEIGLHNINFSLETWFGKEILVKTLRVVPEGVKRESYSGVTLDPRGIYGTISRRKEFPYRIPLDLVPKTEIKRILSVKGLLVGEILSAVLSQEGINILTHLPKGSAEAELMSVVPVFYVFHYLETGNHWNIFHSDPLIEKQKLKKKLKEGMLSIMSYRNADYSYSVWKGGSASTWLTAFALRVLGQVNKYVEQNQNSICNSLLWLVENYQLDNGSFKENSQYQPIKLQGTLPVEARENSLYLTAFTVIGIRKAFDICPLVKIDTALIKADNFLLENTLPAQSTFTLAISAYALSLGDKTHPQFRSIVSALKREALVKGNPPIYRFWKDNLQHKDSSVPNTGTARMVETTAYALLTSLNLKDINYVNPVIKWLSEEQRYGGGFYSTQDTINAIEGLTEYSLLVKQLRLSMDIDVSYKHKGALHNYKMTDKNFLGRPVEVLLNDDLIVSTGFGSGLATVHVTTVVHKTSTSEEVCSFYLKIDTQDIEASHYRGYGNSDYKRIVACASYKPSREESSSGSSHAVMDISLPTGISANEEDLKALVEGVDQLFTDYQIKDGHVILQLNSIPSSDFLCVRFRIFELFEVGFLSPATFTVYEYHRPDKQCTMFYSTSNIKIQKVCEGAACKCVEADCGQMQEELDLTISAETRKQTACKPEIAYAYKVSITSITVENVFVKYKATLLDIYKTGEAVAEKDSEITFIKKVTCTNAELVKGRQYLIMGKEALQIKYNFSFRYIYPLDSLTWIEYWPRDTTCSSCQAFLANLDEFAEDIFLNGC
Procedure: FIG. 1 is a bar graph depicting the binding of peptide #1, peptide #2, and peptide #3 to C5. […] Wild-type M13 phage without a peptide fused to the pill protein was used as a negative control for this assay.
To confirm that Peptides 1, 2, and 3 (Sequence I. D. Nos:1, 2, and 3, respectively) bind C5, the phage clones were tested in a binding assay with increasing amounts of phage incubated with constant biotinylated C5, captured on a neutravidin plate and detected with an anti-phage antibody. Increasing concentrations of each phage clone were incubated for 2 hours with 200 ng of biotinylated C5 in PBS containing 0.5% BSA. The phage bound C5 complex was captured on a neutravidin coated microplate for 20 minutes at room temperature and then washed well. A peroxidase labeled anti-M13 antibody (Pharmacia) was used to detect the amount of phage bound to C5 with OPD substrate.

[3] = system: classical pathway; experiment: Classical pathway hemolytic assay, antibody sensitized sheep erythrocytes in pooled human plasma; assay type: cell-based; settings: disulfide bond reduced and cysteines alkylated; data not shown
Procedure: FIGS. 2A and 2B are bar graphs depicting percent hemolysis above control versus peptide concentration with peptides 1, 2, and 3 for classical pathway activation (FIG. 2A), and alternative pathway activation (FIG. 2B). Percent hemolysis above control is the percent lysis of erythrocytes for each peptide concentration minus the lysis of erythrocytes in the absence of peptide.
Activation of the classical and alternative pathway by the peptides was measured using standard hemolysis assays. For the classical pathway various concentrations of peptide were incubated with 50 ul pooled human plasma (diluted 1:30 with GVB++), 5×10^7 antibody sensitized sheep erythrocyte cells, and GVB++buffer to a final volume of 200 ul. The reaction was incubated at 37° C. for one hour and centrifuged. The percentage of lysis was determined by measuring the optical density of the supernatant at 414 nm. […] Lysis of the erythrocytes was not observed when the peptides were incubated in the absences of a source of complement (plasma). The peptides altered the activity of the complement protein(s) and increased the level of activation of the complement cascade resulting in an increase in hemolysis. Furthermore, when the disulfide bond of peptide 2 was reduced and the cysteines alkylated, enhancement of erythrocyte lysis was reduced (data not shown).

Sequence	bacterial survival [1] [%]	relative affinity for C5 (rank order) [2]	enhancement of erythrocyte lysis [3]
CLSAHHHMC (YCLSAHHHMCGGG; disulfide 2-10 (inferred)) [Peptide 1, synthetic form has added N terminal tyrosine and three C terminal glycines]	23	tightest relative affinity	
CPGKASPWC (YCPGKASPWCGGG; disulfide 2-10 (inferred)) [Peptide 3, synthetic form has added N terminal tyrosine and three C terminal glycines]		then Peptide 3	
CPSSPPHMC (YCPSSPPHMCGGG; disulfide 2-10 (inferred)) [Peptide 2, synthetic form has added N terminal tyrosine and three C terminal glycines]		followed by Peptide 2	reduced
